Measured values reported in patent US20250282892A1 (published 2025).
Blank lines part the entries; values can stand above or below the binder they belong to.

Columns and labels:
[1] = molecular target: EGFR tag free antigen (immobilized) (UniProt P00533 25-645); assay: ELISA; dual-binding sandwich: immobilized EGFR-Fc + HER3-His
[2] = molecular target: HER3 tag free antigen (immobilized) (UniProt P21860 20-643); assay: ELISA; dual-binding sandwich: immobilized HER3-Fc + EGFR-His
HER3 His tag = HER3 His tag (UniProt P21860 20-643); assay: ELISA
EGFR His tag = EGFR His tag (UniProt P00533 25-645); assay: ELISA

- EC50 [1]: 170 nM
- EC50 [2]: 0.55 nM
B1: Patri-Matu-Fc (bispecific antibody)
heavy: not shown
light 1: not shown
light 2: DIQMTQSPSSLSASVGDRVTITCSASSSVTYMYWYQQKPGKAPKLLIYDTSNLASGVPSRFSGSGSGTDYTFTISSLQPEDIATYYCQQWSSHIFTFGQGTKVEIKRTVAAPSVFIFPPSDEQLKSGTASVTCLLNNFYPREAKVQWKVDNALQSGNSQESVTEQDSKDSTYSLVSTLTLSKADYEKHKVYACEVTHQGLSSPVTKSFNRGEC

- EC50 (HER3 His tag): 0.0259 nM
- EC50 (EGFR His tag): 0.013 nM
B2: BMX003-011 (humanized Patri-Cetu-Fc modified) (bispecific antibody)
heavy: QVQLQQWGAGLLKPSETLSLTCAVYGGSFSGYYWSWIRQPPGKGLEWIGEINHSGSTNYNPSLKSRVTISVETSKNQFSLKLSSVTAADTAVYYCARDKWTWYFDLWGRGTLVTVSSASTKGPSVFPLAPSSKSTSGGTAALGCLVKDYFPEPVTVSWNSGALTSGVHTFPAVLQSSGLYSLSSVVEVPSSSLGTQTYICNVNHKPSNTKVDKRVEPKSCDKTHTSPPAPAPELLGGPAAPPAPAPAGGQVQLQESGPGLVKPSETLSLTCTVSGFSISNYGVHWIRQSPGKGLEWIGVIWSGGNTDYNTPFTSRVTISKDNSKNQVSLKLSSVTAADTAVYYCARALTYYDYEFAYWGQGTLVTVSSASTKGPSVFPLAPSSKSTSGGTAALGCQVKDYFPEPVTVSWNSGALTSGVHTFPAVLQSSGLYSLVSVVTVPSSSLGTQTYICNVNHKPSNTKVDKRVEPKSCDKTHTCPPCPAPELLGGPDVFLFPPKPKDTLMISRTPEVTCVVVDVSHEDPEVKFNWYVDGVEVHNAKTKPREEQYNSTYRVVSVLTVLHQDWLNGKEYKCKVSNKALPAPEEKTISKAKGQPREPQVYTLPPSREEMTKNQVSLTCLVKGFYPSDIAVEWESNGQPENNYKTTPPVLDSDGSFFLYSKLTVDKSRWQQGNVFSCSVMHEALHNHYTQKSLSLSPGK
light 1: not shown
light 2: EIVLTQSPDFQSVTPKEKVTITCRASQSIGTNIHWYQQKPDQSPKLLIKYASESISGVPSRFSGSGSGTDFTLTINSLEAEDAATYYCQQNNNWPTTFGAGTKLEIKRTVAAPSVFIFPPSDEQLKSGTASVTCLLNNFYPREAKVQWKVDNALQSGNSQESVTEQDSKDSTYSLVSTLTLSKADYEKHKVYACEVTHQGLSSPVTKSFNRGEC

- EC50 (HER3 His tag): 0.0223 nM
- EC50 (EGFR His tag): 0.0155 nM
B3: BMX003-010 (humanized Patri-Cetu-Fc) (bispecific antibody)
heavy: not shown
light 1: not shown
light 2: B2 light 2
